Patent US20170356905 (published 2017)

Target: alpha-thrombin (Homo sapiens, UniProt P00734;P00734 P00734:328-363,P00734:364-622)
Experiment: competition; collected complementary strand (SEQ 3) increased with thrombin 0-100 ppm; HEPES/NaCl/KCl/MgCl2/Tween 20 buffer, room temperature

GGTTGGTGTGGTTGGTTTTT (ssDNA, 3'-biotin; five T added at 3' end (included in SEQ)) [thrombin aptamer TA-3bio]: binds.
